Reference: EP0888374B1

Biological target: Complement System Protein C1q (UniProt P02745)
Assay: cell-based or functional assay

Sequence of UniProt P02745 (P02745 23-245, chain 1 of 3): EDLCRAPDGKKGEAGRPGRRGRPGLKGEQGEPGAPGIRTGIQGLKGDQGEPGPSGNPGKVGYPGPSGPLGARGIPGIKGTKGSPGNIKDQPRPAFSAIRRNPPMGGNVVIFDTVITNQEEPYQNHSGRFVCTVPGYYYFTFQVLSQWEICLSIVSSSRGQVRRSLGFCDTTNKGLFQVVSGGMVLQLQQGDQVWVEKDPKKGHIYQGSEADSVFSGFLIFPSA
Sequence of UniProt P02745 (P02746 28-253, chain 2 of 3, further chain): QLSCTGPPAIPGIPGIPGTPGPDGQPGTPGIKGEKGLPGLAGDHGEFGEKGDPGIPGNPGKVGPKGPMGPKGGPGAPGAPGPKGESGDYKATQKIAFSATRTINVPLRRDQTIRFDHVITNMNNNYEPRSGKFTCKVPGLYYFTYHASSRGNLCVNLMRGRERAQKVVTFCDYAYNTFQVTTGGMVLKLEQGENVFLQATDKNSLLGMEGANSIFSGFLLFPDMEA
Sequence of UniProt P02745 (P02747 29-245, chain 3 of 3, further chain): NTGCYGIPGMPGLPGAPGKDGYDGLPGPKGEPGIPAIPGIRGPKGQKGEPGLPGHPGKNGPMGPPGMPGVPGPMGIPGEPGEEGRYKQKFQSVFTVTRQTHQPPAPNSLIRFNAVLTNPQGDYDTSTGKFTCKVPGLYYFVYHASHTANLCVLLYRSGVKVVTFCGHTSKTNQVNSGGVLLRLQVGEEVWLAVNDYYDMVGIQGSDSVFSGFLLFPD

[4d] µg (Class.): 8 µg
Substance: BSA-anti-BSA Immune Complexes (from UniProt P02769 25-607)
